B1: PA-PB1(1-686) heterodimer (construct 1) (complex)
chain 1: […]
chain 2: MDVNPTLLFLKVPAQNAISTTFPYTGDPPYSHGTGTGYTMDTVNRTHQYSEKGKWTTNTETGAAQLNPIDGPLPEDNEPSGYAQTDCVLEAMAFLEESHPGIFENSCLETMEVVQQTRVDRLTQGRQTYDWTLNRNQPAATALANTIEVFRSNGLIANESGRLIDFLKDVIESMDKEEMEITTHFQRKRRVRDNMTKKMVTQRTIGKKKQRVNKRSYLIRALTLNTMTKDAERGKLKRRAIATPGMQIRGFVYFVETLARSICEKLEQSGLPVGGNEKKAKLANVVRKMMTNSQDTELSFTITGDNTKWNENQNPRMFLAMITYITKNQPEWFRNILSIAPIMFSNKMARLGKGYMFESKRMKLRTQIPAEMLASIDLKYFNESTRKKIEKIRPLLIDGTASLSPGMMMGMFNMLSTVLGVSILNLGQKKYTKTTYWWDGLQSSDDFALIVNAPNHEGIQAGVDRFYRTCKLVGINMSKKKSYINRTGTFEFTSFFYRYGFVANFSMELPSFGVSGINESADMSIGVTVIKNNMINNDLGPATAQMALQLFIKDYRYTYRCHRGDTQIQTRRSFELKKLWEQTRSKAGLLVSDGGPNLYNIRNLHIPEVCLKWELMDEDYQGRLCNPLNPFVSHKEIESVNNAVVMPAHGPAKSMEYDAVATTHSWIPKRNRSILNTSQRGILEDE
B2: RanBP5 (residues 1-1115) co-expressed in the PA-PB1(1-686)-RanBP5 polyprotein (construct 21) (natural protein)
chain: MPEDQVGKLEATENTISAMAAAAAEQQQFYLLLGNLLSPDNVVRKQAEETYENIPGQSKITFLLQAIRNTTAAEEARQMAAVLLRRLLSSAFDEVYPALPSDVQTAIKSELLMIIQMETQSSMRKKVCDIAAELARNLIDEDGNNQWPEGLKFLFDSVSSQNVGLREAALHIFWNFPGIFGNQQQHYLDVIKRMLVQCMQDQEHPSIRTLSARATAAFILANEHNVALFKHFADLLPGFLQAVNDSCYQNDDSVLKSLVEIADTVPKYLRPHLEATLQLSLKLCGDTSLNNMQRQLALEVIVTLSETAAAMLRKHTNIVAQTIPQMLAMMVDLEEDEDWANADELEDDDFDSNAVAGESALDRMACGLGGKLVLPMIKEHIMQMLQNPDWKYRHAGLMALSAIGEGCHQQMEGILNEIVNFVLLFLQDPHPRVRYAACNAVGQMATDFAPGFQKKFHEKVIAALLQTMEDQGNQRVQAHAAAALINFTEDCPKSLLIPYLDNLVKHLHSIMVLKLQELIQKGTKLVLEQVVTSIASVADTAEEKFVPYYDLFMPSLKHIVENAVQKELRLLRGKTIECISLIGLAVGKEKFMQDASDVMQLLLKTQTDFNDMEDDDPQISYMISAWARMCKILGKEFQQYLPVVMGPLMKTASIKPEVALLDTQDMENMSDDDGWEFVNLGDQQSFGIKTAGLEEKSTACQMLVCYAKELKEGFVEYTEQVVKLMVPLLKFYFHDGVRVAAAESMPLLLECARVRGPEYLTQMWHFMCDALIKAIGTEPDSDVLSEIMHSFAKCIEVMGDGCLNNEHFEELGGILKAKLEEHFKNQELRQVKRQDEDYDEQVEESLQDEDDNDVYILTKVSDILHSIFSSYKEKVLPWFEQLLPLIVNLICPHRPWPDRQWGLCIFDDVIEHCSPASFKYAEYFLRPMLQYVCDNSPEVRQAAAYGLGVMAQYGGDNYRPFCTEALPLLVRVIQSADSKTKENVNATENCISAVGKIMKFKPDCVNVEEVLPHWLSWLPLHEDKEEAVQTFNYLCDLIESNHPIVLGPNNTNLPKIFSIIAEGEMHEAIKHEDPCAKRLANVVRQVQTSGGLWTECIAQLSPEQQAAIQELLNSA

Assays:
[1] = biological target: B2; assay: co-purification (nickel resin, heparin, SEC); details: partners not purified
[2] = biological target: B1; assay: SEC-SAXS; details: both partners purified

B1: binds [1].

For B2, the “stoichiometry N” value [2] was 1.
